Experimental data: US20230159655A1

Key:
[1] = target: human NT5E-Biotin (NT5E, GenbankID: NP_002517.1, position: 1-552) (human) (UniProt P21589); test: ELISA on SA-captured NT5E-Biotin; antibody 0.333 ug/mL diluted 1:729; replicate 2
[2] = target: human NT5E(1-552)-his (human) (UniProt P21589); test: Fortebio BLI, antibody on Protein A sensor, antigen 3.125-200 nM, 37 C, 1:1 fit
[3] = target: CD73 endogenously expressed on the cell surface (MDA-MB-231 cells; U87-MG cells) (UniProt P21589); test: flow cytometry on MDA-MB-231 cells; antibody […]
Chain of CD73 endogenously expressed on the cell surface (MDA-MB-231 cells; U87-MG cells) (P21589 27-549 limits assumed): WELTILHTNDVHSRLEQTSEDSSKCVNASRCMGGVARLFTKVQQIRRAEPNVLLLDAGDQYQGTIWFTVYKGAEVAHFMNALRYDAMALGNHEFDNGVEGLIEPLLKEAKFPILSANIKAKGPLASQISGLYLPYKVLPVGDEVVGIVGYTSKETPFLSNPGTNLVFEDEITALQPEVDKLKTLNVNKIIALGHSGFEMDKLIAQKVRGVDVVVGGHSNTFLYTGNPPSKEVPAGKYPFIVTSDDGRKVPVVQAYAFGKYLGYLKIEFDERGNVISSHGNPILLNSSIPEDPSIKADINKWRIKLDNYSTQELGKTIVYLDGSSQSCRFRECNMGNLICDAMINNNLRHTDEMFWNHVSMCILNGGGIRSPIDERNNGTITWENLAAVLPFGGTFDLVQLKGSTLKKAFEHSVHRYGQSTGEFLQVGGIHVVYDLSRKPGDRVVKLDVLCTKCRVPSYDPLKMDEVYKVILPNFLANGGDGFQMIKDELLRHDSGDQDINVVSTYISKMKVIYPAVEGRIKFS

[4] = target: human NT5E-Biotin (NT5E, GenbankID: NP_002517.1, position: 1-552) (human) (UniProt P21589); test: ELISA on SA-captured NT5E-Biotin; antibody 0.333 ug/mL diluted 1:729; replicate 1
[5] = target: CD73 endogenously expressed on the cell surface (MDA-MB-231 cells; U87-MG cells) (UniProt P21589); test: flow cytometry on MDA-MB-231 cells; antibody 0.14 nM
[6] = target: human NT5E-Biotin (NT5E, GenbankID: NP_002517.1, position: 1-552) (human) (UniProt P21589); test: ELISA on SA-captured NT5E-Biotin; antibody 0 (blank); replicate 2
[7] = target: human NT5E-Biotin (NT5E, GenbankID: NP_002517.1, position: 1-552) (human) (UniProt P21589); test: ELISA on SA-captured NT5E-Biotin; antibody 0.333 ug/mL diluted 1:9; replicate 2
[8] = target: human NT5E-Biotin (NT5E, GenbankID: NP_002517.1, position: 1-552) (human) (UniProt P21589); test: ELISA on SA-captured NT5E-Biotin; antibody 0.333 ug/mL; replicate 1
[9] = target: CD73 endogenously expressed on the cell surface (MDA-MB-231 cells; U87-MG cells) (UniProt P21589); test: flow cytometry on MDA-MB-231 cells; antibody 3.70 nM
[10] = target: human NT5E-Biotin (NT5E, GenbankID: NP_002517.1, position: 1-552) (human) (UniProt P21589); test: ELISA on SA-captured NT5E-Biotin; antibody 0.333 ug/mL diluted 1:243; replicate 1
[11] = target: human NT5E-Biotin (NT5E, GenbankID: NP_002517.1, position: 1-552) (human) (UniProt P21589); test: ELISA on SA-captured NT5E-Biotin; antibody 0.333 ug/mL diluted 1:243; replicate 2
[12] = target: CD73 endogenously expressed on the cell surface (MDA-MB-231 cells; U87-MG cells) (UniProt P21589); test: flow cytometry on MDA-MB-231 cells; antibody 33.33 nM
[13] = target: CD73 endogenously expressed on the cell surface (MDA-MB-231 cells; U87-MG cells) (UniProt P21589); test: flow cytometry on MDA-MB-231 cells; antibody 0.41 nM
[14] = target: human NT5E-Biotin (NT5E, GenbankID: NP_002517.1, position: 1-552) (human) (UniProt P21589); test: ELISA on SA-captured NT5E-Biotin; antibody 0.333 ug/mL; replicate 2
[15] = target: human NT5E-Biotin (NT5E, GenbankID: NP_002517.1, position: 1-552) (human) (UniProt P21589); test: ELISA on SA-captured NT5E-Biotin; antibody 0.333 ug/mL diluted 1:27; replicate 2
[16] = target: human NT5E-Biotin (NT5E, GenbankID: NP_002517.1, position: 1-552) (human) (UniProt P21589); test: ELISA on SA-captured NT5E-Biotin; antibody 0.333 ug/mL diluted 1:81; replicate 2
[17] = target: human NT5E-Biotin (NT5E, GenbankID: NP_002517.1, position: 1-552) (human) (UniProt P21589); test: ELISA on SA-captured NT5E-Biotin; antibody 0.333 ug/mL diluted 1:3; replicate 1
[18] = target: CD73 endogenously expressed on the cell surface (MDA-MB-231 cells; U87-MG cells) (UniProt P21589); test: flow cytometry on MDA-MB-231 cells; antibody 0.05 nM
[19] = target: human NT5E-Biotin (NT5E, GenbankID: NP_002517.1, position: 1-552) (human) (UniProt P21589); test: ELISA on SA-captured NT5E-Biotin; antibody 0.333 ug/mL diluted 1:81; replicate 1
[20] = target: human NT5E-Biotin (NT5E, GenbankID: NP_002517.1, position: 1-552) (human) (UniProt P21589); test: ELISA on SA-captured NT5E-Biotin; antibody 0 (blank); replicate 1
[21] = target: human NT5E-Biotin (NT5E, GenbankID: NP_002517.1, position: 1-552) (human) (UniProt P21589); test: ELISA on SA-captured NT5E-Biotin; antibody 0.333 ug/mL diluted 1:3; replicate 2
[22] = target: human NT5E-Biotin (NT5E, GenbankID: NP_002517.1, position: 1-552) (human) (UniProt P21589); test: ELISA on SA-captured NT5E-Biotin; antibody 0.333 ug/mL diluted 1:9; replicate 1
[23] = target: CD73 endogenously expressed on the cell surface (MDA-MB-231 cells; U87-MG cells) (UniProt P21589); test: flow cytometry on MDA-MB-231 cells; antibody 11.11 nM
[24] = target: CD73 endogenously expressed on the cell surface (MDA-MB-231 cells; U87-MG cells) (UniProt P21589); test: flow cytometry on MDA-MB-231 cells; antibody 100.00 nM
[25] = target: human NT5E-Biotin (NT5E, GenbankID: NP_002517.1, position: 1-552) (human) (UniProt P21589); test: ELISA on SA-captured NT5E-Biotin; antibody 0.333 ug/mL diluted 1:27; replicate 1

Chain of human NT5E-Biotin (NT5E, GenbankID: NP_002517.1, position: 1-552) (human) (P21589 27-552 limits assumed, form in doubt): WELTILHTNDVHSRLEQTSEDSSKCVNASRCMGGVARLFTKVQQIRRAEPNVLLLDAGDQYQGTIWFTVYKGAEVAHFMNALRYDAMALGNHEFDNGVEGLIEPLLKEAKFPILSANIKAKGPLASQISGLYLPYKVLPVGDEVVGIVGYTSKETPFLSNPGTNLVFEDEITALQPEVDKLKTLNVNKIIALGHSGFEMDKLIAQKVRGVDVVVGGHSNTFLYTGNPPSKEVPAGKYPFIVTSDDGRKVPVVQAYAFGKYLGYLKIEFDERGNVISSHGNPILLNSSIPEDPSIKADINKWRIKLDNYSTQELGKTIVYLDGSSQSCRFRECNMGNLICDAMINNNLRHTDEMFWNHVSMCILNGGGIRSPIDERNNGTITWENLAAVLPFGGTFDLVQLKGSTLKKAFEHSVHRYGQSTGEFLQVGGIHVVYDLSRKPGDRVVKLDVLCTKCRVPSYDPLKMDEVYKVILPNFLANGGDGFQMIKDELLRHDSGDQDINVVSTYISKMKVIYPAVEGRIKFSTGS
Chain of human NT5E(1-552)-his (human) (P21589 27-552 limits assumed, form in doubt): as above

- OD 450 nm [1]: 0.275 OD450
- S E (kdis) [2]: 5.02e-06 s⁻¹
- fluorescence intensity (FACS) [3]: 267
- OD 450 nm [4]: 0.272 OD450
- fluorescence intensity (FACS) [5]: 43.2
- OD 450 nm [6]: 0.116 OD450
- OD 450 nm [7]: 2.28 OD450
- OD 450 nm [8]: 2.55 OD450
- fluorescence intensity (FACS) [9]: 454
- OD 450 nm [10]: 0.536 OD450
- OD 450 nm [11]: 0.528 OD450
- fluorescence intensity (FACS) [12]: 546
- fluorescence intensity (FACS) [13]: 91
- OD 450 nm [14]: 2.53 OD450
- OD 450 nm [15]: 1.74 OD450
- OD 450 nm [16]: 1.03 OD450
- OD 450 nm [17]: 2.57 OD450
- fluorescence intensity (FACS) [18]: 28.4
- OD 450 nm [19]: 1.06 OD450
- OD 450 nm [20]: 0.121 OD450
- OD 450 nm [21]: 2.6 OD450
- OD 450 nm [22]: 2.27 OD450
- fluorescence intensity (FACS) [23]: 519
- fluorescence intensity (FACS) [24]: 581
- OD 450 nm [25]: 1.77 OD450
Substance: positive control antibody MEDI9447 (oleclumab)
